# Experimental data taken from publication PMC10256154, “An unbroken network of interactions connecting flagellin domains is required for motility in viscous environments” (PLOS Pathogens, 2023).
# Biological target: the molecule itself
# Experiment: SEC; Superdex 200 Increase 10/300 GL; recombinant full-length FliC proteins after NiNTA, PBS buffer
protein,measurement,value
"full-length FliC Δ204–205 of P. aeruginosa PAO1, recombinant (natural protein, Cloned in pET28-a with a C-terminal polyhistidine tag; source: E. coli BL21(DE3), purified (NiNTA, size-exclusion chromatography)) MALTVNTNIASLNTQRNLNASSNDLNTSLQRLTTGYRINSAKDDAAGLQISNRLSNQISGLNVATRNANDGISLAQTAEGALQQSTNILQRIRDLALQSANGSNSDADRAALQKEVAAQQAELTRISDTTTFGGRKLLDGSFGTTSFQVGSNAYETIDISLQNASASAIGSYQVGSNGAGTVASVAGTATASGIASGTVNLVGQVKNIAIAAGDSAKAIAEKMDGAIPNLSARARTVFTADVSGVTGGSLNFDVTVGSNTVSLAGVTSTQDLADQLNSNSSKLGITASINDKGVLTITSATGENVKFGAQTGTATAGQVAVKVQGSDGKFEAAAKNVVAAGTAATTTIVTGYVQLNSPTAYSVSGTGTQASQVFGNASAAQKSSVASVDISTADGAQNAIAVVDNALAAIDAQRADLGAVQNRFKNTIDNLTNISENATNARSRIKDTDFAAETAALSKNQVLQQAGTAILAQANQLPQAVLSLLR",stoichiometry N,2
